From patent US20070243191A1, “ANTI-HYPERPROLIFERATIVE THERAPIES TARGETING HDGF” (THE BOARD OF REGENTS OF THE UNIVERSITY OF TEXAS SYSTEM, priority 2005, published 2007)
Each block holds one molecule with its values, some of them ahead of it.

How the values were obtained:
A549 xenograft [1] = assay: A549 xenograft model, H3 in combination with gemcitabine and Avastin; assay type: in vivo, mouse; conditions: single agents and combinations
Method: To determine potential synergistic effects of combining the antibodies with other cancer therapeutic agents, the H3 antibody was tested in combination with gemcitabine, a commonly used chemotherapeutic agent, and Avastin®, a FDA approved VEGF neutralizing monoclonal antibody, in the A549 xenograft model. At day 7 after tumor cell inoculation subcutaneously, the animals were randomized into one of the 8 groups: […] (6 mice), gemcitabine (5 mice), H3 (7 mice), Avastin® (5 mice), H3+gemcitabine (5 mice), 113+Avastin® (5 mice), Avastin®+gemcitabin (5 mice), and H3+ gemcitabine+Avastin® (7 mice). In this experiment, all the agents were given IP at day 7 and every 3 days thereafter for total 5 injections. H3 was given 250 μg per mouse/injection without boost at first injection; gemcitabine was given in a dose of 80 mg/kg/injection; and Avastin® was given 100 μg per mouse/injection.

tumor microvessels = assay: CD31 staining of microvessels in treated A549 xenograft tumors; assay type: in vivo, mouse
Text: In order to directly study the antiangiogenic action of anti-HDGF antibodies, the xenograph tumors treated with the various agents and presented in the foregoing example (see FIG. 8) were studied following CD31 staining. CD31 antibody staining is generally regarded as a convenient means of visualizing microvessels in order to assess angiogenesis and anti-angiogenic action. Each of the tumors treated as described with respect to FIG. 8 were subjected to CD31 staining.

[2] = target: T1, human hepatoma-derived growth factor (HDGF) (human, UniProt P51858 1-240); assay: sandwich ELISA, 40 ng C1 coated per well as capture antibody
T1 construct: In most assays the endogenous protein of human cancer cell lines or tissues (lysates for immunoprecipitation, denatured on Western blots); also called native HDGF; recombinant HDGF
T1 sequence (P51858 whole entry): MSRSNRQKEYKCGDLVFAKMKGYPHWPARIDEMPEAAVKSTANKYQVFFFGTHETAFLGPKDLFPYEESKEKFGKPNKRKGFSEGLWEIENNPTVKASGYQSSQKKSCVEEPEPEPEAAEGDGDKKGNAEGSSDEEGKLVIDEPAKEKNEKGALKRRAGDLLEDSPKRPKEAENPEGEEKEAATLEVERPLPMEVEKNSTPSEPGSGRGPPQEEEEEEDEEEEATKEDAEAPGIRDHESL

[3] = Antibody distribution after intra-peritoneal injection in tumor-bearing nude mice; assay type: in vivo; conditions: for antibody localization in tumor tissue (anti-mouse IgG staining): tumor tissue sections of treated tumors
Method: To determine the distribution of the antibodies after intra-peritoneal injection in the animals, we injected fluoresce labeled M31 and H3 antibodies into nude mice and used a scanner to measure the antibody distribution 12 h after injection. […] To determine the antibody distribution in the tumor tissues and to compare the patterns of the distribution in the tumor tissues among the different antibodies, a specific anti-mouse IgG antibody was used to stain tumor tissue sections of tumors treated with different antibodies.

HDGF [4] = target: T2, HDGF (Mus musculus, UniProt P51859, A118D); assay: Western blot of HDGF in putative MiaPaca-2 cells; assay type: binding; conditions: putative MiaPaca-2 line (murine HDGF)
T2 construct: endogenous in cells; host or cells: putative MiaPaca-2 cells, believed to be M109 murine lung adenocarcinoma
T2 sequence (P51859 whole entry A118D): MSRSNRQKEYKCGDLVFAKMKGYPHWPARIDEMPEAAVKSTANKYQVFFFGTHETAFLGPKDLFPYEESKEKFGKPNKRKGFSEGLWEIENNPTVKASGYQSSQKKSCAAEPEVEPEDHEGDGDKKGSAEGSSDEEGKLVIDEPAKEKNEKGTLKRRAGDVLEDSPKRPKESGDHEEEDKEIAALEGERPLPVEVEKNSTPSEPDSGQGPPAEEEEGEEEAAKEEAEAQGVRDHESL
Method: (§1) The two antibodies were tested using what was believed at the time to be the MiaPaca-2 pancreatic cancer xenograft model. […] This observation led to the use of H3 in the initial combination experiment described above. To determine the expression of HDGF in the cell line, a Western blot analysis was performed using C1 and H3 antibodies. […] To determine HDGF expression levels in pancreatic cancers, 7 additional pancreatic cancer cell lines were analyzed. All the 7 cell lines expressed high-level HDGF recognizable by H3 antibody but not the putative “MiaPaca-2” line.
(§2) An immunoprecipitation assay was then performed using H3 antibody to determine whether the antibody recognizes the native HDGF in the cells, which is important to explain why the antibody had inhibited the tumor growth in the xenograft model. […] Because the protein migrated faster than the HDGF from NSCLC cell lines, the HDGF cDNA from “MiaPaca-2” cells was sequenced. […] The origin of the cell line was traced and is now believed to be M109, a murine lung adenocarcinoma cell line from a mouse spontaneous lung cancer.

native HDGF [5] = target: native HDGF (Homo sapiens, UniProt P51858); assay: Binding to native HDGF (immunoprecipitation, clone selection)
native HDGF (Homo sapiens, UniProt P51858), sequence (P51858 whole entry): as the sequence (P51858 whole entry) above
Text: Thus, to develop a useful therapeutic that could affect tumor control, it was deemed important to develop high-affinity monoclonal antibodies that had the ability to bind native HDGF. An exemplary approach that was employed by the inventors involved, first, generating full-length recombinant HDGF in bacteria. This bacterially expressed recombinant HDGF was then used the immunize mice to generate mature B cells secreting antibodies specifically recognizing HDGF. After fusing the B cells with myeloma cells and several rounds of screening/selection steps, single clones secreting high-affinity IgGs capable to bind native HDGF were identified. […] Antibodies from these clones were selected and tested using IHC. Similar staining patterns were obtained in a panel of tumor samples among these antibodies and between these antibodies and the previously mentioned polyclonal antibodies, indicating these antibodies recognize HDGF. All of the four monoclonal antibodies are IgG1 and have been adapted to serum-free conditions for scale-up production.

H460 xenograft = H460 xenograft model; assay type: in vivo, mouse
[6] = system: L3.6 pancreatic cancer cells; assay: L3.6 pancreatic cancer xenograft model; assay type: in vivo; conditions: mice with tumors bigger than 500 mg, one week after treatment
Method: Anti-HDGF antibodies were tested for a therapeutic effect in a xenograft model using metastatic L3.6 pancreatic cancer cells. After 10 days of tumor cell inoculation, mice were randomly selected into either M31 control antibody treatment, H3 antibody treatment, or C1 antibody treatment. The sizes of the tumors were between 100-200 mg at the time of treatment except three which grown bigger than 500 mg and were assigned to each group. […] This phenomenon is similar to human clinical observations where some established primary lung cancers develop liquidized central part of the tumors after treatment with agents having anti-angiogenic activity such as sorafenib (BAY 43-9006). This is a hallmark feature of anti-angiogenic agents as a class.

A549 xenograft [7] = assay: A549 xenograft model, individual monoclonal antibodies; assay type: in vivo, mouse; conditions: for average tumor weights: 500 μg boost then 250 μg every three days x4 i.p., day 22, PBS 784±458; for tumor growth inhibition vs PBS and M31 controls: A549 xenograft, individual antibodies
Text: To determine an anti-tumor effect of individual monoclonal antibodies, the CELLine™ system (BD Biosciences) was used to generate the amount of antibodies for each clone sufficient for our animal experiments. In our second experiment, we tested four individual monoclonal antibodies (H3, C1, C4, and L5-9) and used PBS and M31, an IgG1 antibody without known antigen, as controls. Cell inoculation was similar to the experiment described above, 7 days after subcutaneous injection of A549 cells, the animals with established tumors were randomized into one of the 6 groups. Besides PBS group, which was given 200 μl PBS every IP injection, all the other groups were given a 500 μg of individual antibody as boost dose followed by 250 μg/injection every three days for four times. Tumor sizes were measured every three days. All the animals were sacrificed at day 22 after tumor cell inoculation.

HDGF [8] = target: T3, HDGF (Homo sapiens, UniProt P51858); assay: Immunoprecipitation of HDGF from H460 total cell lysates; assay type: binding; conditions: H460 NSCLC total cell lysates
T3 construct: The antibody sufficiently pulled down over 90% of the cellular HDGF; endogenous in cells; host or cells: H460 NSCLC cells (total cell lysate)
T3 sequence (P51858 whole entry): as above
Method: In most studies, HDGF was found localized in nuclear compartment. […] One possibility of the lacking cytoplasmic staining is the common IHC conditions. Alternatively, the protein may be rapidly released from cells making the detection of protein in cytoplasm difficult. Taking advantage of the newly developed monoclonal antibodies, two sets of experiments were performed to determine the subcellular localization of HDGF and the secretion/releasing status of the protein. In one set of experiment, H3 was used for immunoprecipitation (IP) employing total cell lysates from H460 NSCLC cells. The antibody sufficiently pulled down over 90% of the cellular HDGF. Some potential HDGF binding proteins might have also co-precipitated with HDGF. We then extracted cytoplasmic proteins and nuclear proteins separately and performed IP as described above followed by 2-DE protein separation. Although the relative HDGF protein amount was higher in the nuclear than in the cytoplasm with equal amount of protein loading, HDGF was clearly presented in cytoplasm with distinct modification or homologues patterns between the two subcellular compartments. It should be noted that the total amount of cytoplasmic proteins is much higher than the nuclear proteins. Therefore, the absolute amount of HDGF in cytoplasm may actually be similar or even higher to that in nuclear.

"MiaPaca-2" line (M109) = assay: Putative MiaPaca-2 (believed M109 murine lung adenocarcinoma) xenograft model; assay type: in vivo, mouse; conditions: putative MiaPaca-2 (murine M109) model, H3 compared with C1
Method: as §1, §2

native HDGF [9] = target: T4, native HDGF (Mus musculus, UniProt P51859); assay: Immunoprecipitation of native HDGF from putative MiaPaca-2 cells; assay type: binding; conditions: putative MiaPaca-2 cells (murine HDGF)
T4 construct: endogenous in cells; host or cells: putative MiaPaca-2 cells, believed to be M109 murine lung adenocarcinoma
T4 sequence (P51859 whole entry): as the sequence (P51859 whole entry A118D) above, with D118A counted along it
Method: as §2

Molecule: Nc1ccn([C@@H]2O[C@H](CO)[C@@H](O)C2(F)F)c(=O)n1 [gemcitabine, reference compound]
tumor growth inhibition (A549 xenograft [1]): only modest tumor growth inhibition | size of the microvessels in the tumors (tumor microvessels): further increase the size

Molecule: Avastin®: FDA approved VEGF neutralizing monoclonal antibody [reference compound]
tumor growth inhibition (A549 xenograft [1]): best inhibition | numbers of microvessels in the tumors (tumor microvessels): substantially reduced numbers of microvessels

B2: C1: anti-HDGF IgG1 monoclonal antibody; heavy chain SEQ ID NO:32, light chain SEQ ID NO:34 (antibody, V domains shown)
VH: EVQLVESGGRLVQPKGSLKLSCAASGFTFNTYAMYWIRQAPGKGLEWVARIRSKSYNYATYYADSVKDRFTISRDDSQSMLYLQMNNLKTADTAMYYCVSEGFWGQGTSVTVSS
VL: DVLMTQTPLSLPVSLGDQASISCRSSQSIVHSSGNTYLEWYLQKPGQSPKLLIYKVSNRFSGVPDRFSGSGSGTDFTLKISRVEAEDLGVYYCFQGSHVPWTFGGGTKLEIK
modifications: C1 heavy chain aa; C1 light chain aa
antibody localization in tumor tissue (anti-mouse IgG staining) [3]: entered into both cytoplasm and nuclear | detection of HDGF on Western blots (HDGF [4]): did not detect HDGF | binding to native HDGF (native HDGF [5]): ability to immunoprecipitate HDGF | tumor growth inhibition (H460 xenograft): effective in inhibiting tumor growth | liquidized central part of tumor (hollow effect) [6]: developed liquidized central part | average tumor weights (A549 xenograft [7]): 224±85 | tumor growth inhibition vs PBS and M31 controls (A549 xenograft [7]): most significant tumor growth inhibition

Second part, led by results:

binding result [2]: binds
B1: anti-HDGF monoclonal antibody C1 (antibody, V domains shown)
VH: B2 VH
VL: B2 VL
notes: also called HDGF C1-2f; C1 antibody

cellular HDGF pulled down by immunoprecipitation (HDGF [8]): over 90% | detection of HDGF on Western blots (HDGF [4]): did not detect HDGF | binding to native HDGF (native HDGF [5]): ability to immunoprecipitate HDGF | binding to native HDGF of the tumor cells (native HDGF [9]): strongly bound
B3: H3: anti-HDGF IgG1 monoclonal antibody; heavy chain SEQ ID NO:36, light chain SEQ ID NO:38 (antibody, V domains shown)
VH: QITLKQSGPGIVQPSQPVRLTCTFSGFSLSTSGIGVAWIRQPSGKGLEWLATIWWDDDNRYNPSLKSRLAVSKDTSNNQAFLNIITVETADTAIYYCAQIYDYAVGFAYWGQGTLVTVSA
VL: DIQMTQTTSSLSASLGDRVTISCRASQDISNYLNWYQQKPDGTVKLLIYYTSRLHSGVPSRFSGSGSGTDYSLTISNLEPDDIATYYCQQYGKLWTFGGGTKLEIK
modifications: H3 heavy chain aa; H3 light chain aa
antibody distribution in the animals including tumors ([3]; fluorescence-labeled antibody, 12 h after i.p. injection, nude mice): evenly distributed | antibody localization in tumor tissue (anti-mouse IgG staining) [3]: entered into the cytoplasmic compartment of some tumor cells | tumor growth inhibition (A549 xenograft [1]): best inhibition followed by H3 | tumor growth inhibition (H460 xenograft): effective in inhibiting tumor growth | tumor growth inhibition ("MiaPaca-2" line (M109)): better tumor growth inhibition | liquidized central part of tumor (hollow effect) [6]: developed liquidized central part | numbers of microvessels in the tumors (tumor microvessels): substantially reduced numbers of microvessels | size of the microvessels in the tumors (tumor microvessels): stronger role in reducing the size | average tumor weights (A549 xenograft [7]): 266±22 | tumor growth inhibition vs PBS and M31 controls (A549 xenograft [7]): most significant tumor growth inhibition
